This note sets out measurements from patent publication US20250177546A1, “ROR1-TARGETED BINDING MOLECULE AND USE THEREOF” (SANYOU BIOPHARMACEUTICALS CO., LTD., priority 2022, published 2025).

Experiment [1] addresses huROR1-His (human ROR1 ECD AA30-406 with C-terminal His tag, made in house) (human) (UniProt Q01973). The experiment can be described thus: ELISA, huROR1-His coated at 2 µg/mL, goat anti-human Fc-HRP, OD450.
Experiment [2] has as its target human ROR1 on cells (full-length human ROR1 on huROR1-HEK293 cells; human ROR1 on A549 and HT-29 tumor cells) (human) (UniProt Q01973). Description: flow cytometry (FACS) on A549 tumor cells, anti-human IgG-Fc secondary antibody, MFI. A general note: In flow cytometry, cells or beads pass a laser one at a time.
Experiment [3] concerns the target huROR1-His (human ROR1 ECD AA30-406 with C-terminal His tag, made in house) (human) (UniProt Q01973). Description: ELISA, huROR1-His coated at 2 µg/mL, goat anti-human Fc-HRP, OD450. This is another data set of the same source.
Experiment [4] has the same target. Description: Gator (BLI) Advanced Kinetics; antibody 30 nM, huROR1-His 480-7.5 nM.
For experiment [5], the target named is human ROR1 on cells (full-length human ROR1 on huROR1-HEK293 cells; human ROR1 on A549 and HT-29 tumor cells) (human) (UniProt Q01973). The experiment can be described thus: flow cytometry (FACS) on huROR1-HEK293 cells, anti-human IgG-Fc secondary antibody, MFI.
Experiment [6] deals with huROR1-His (human ROR1 ECD AA30-406 with C-terminal His tag, made in house) (human) (UniProt Q01973). Description: Biacore T200 SPR; huROR1-His amine-coupled (~75 RU), antibody 4 and 20 nM as analyte, 1:1 Langmuir fit. Background: Surface plasmon resonance follows binding to a sensor surface in real time, without labels.
Experiment [7] addresses human ROR1 on cells (full-length human ROR1 on huROR1-HEK293 cells; human ROR1 on A549 and HT-29 tumor cells) (human) (UniProt Q01973). Description: flow cytometry (FACS) on A549 tumor cells, anti-human IgG-Fc secondary antibody, MFI. This is another data set of the same source.
Experiment [8] addresses huROR1-His (human ROR1 ECD AA30-406 with C-terminal His tag, made in house) (human) (UniProt Q01973). The experiment can be described thus: ELISA, huROR1-His coated plate, goat anti-human Fc-HRP, OD450. On the technique in general: ELISA stands for enzyme-linked immunosorbent assay.
Experiment [9] shares this target. Described as above. This is another data set of the same source.
Experiment [10] shares this target. Described as above. This is another data set of the same source.
The target is the same in experiment [11]. The experiment is described as above. This is another data set of the same source.
In experiment [12] the target is human ROR1 on cells (full-length human ROR1 on huROR1-HEK293 cells; human ROR1 on A549 and HT-29 tumor cells) (human) (UniProt Q01973). Description: flow cytometry (FACS) on HT29 (HT-29) tumor cells, anti-human IgG-Fc secondary antibody, MFI.
For experiment [13] the target is unchanged. The experiment can be described thus: flow cytometry (FACS) on huROR1-HEK293 cells, anti-human IgG-Fc secondary antibody, MFI. This is another data set of the same source.
Experiment [14] concerns the target huROR1-His (human ROR1 ECD AA30-406 with C-terminal His tag, made in house) (human) (UniProt Q01973). The experiment can be described thus: ELISA, huROR1-His coated plate, goat anti-human Fc-HRP, OD450. This is another data set of the same source.

Sequence of huROR1-His (human ROR1 ECD AA30-406 with C-terminal His tag, made in house) (human) (Q01973 30-406 limits assumed): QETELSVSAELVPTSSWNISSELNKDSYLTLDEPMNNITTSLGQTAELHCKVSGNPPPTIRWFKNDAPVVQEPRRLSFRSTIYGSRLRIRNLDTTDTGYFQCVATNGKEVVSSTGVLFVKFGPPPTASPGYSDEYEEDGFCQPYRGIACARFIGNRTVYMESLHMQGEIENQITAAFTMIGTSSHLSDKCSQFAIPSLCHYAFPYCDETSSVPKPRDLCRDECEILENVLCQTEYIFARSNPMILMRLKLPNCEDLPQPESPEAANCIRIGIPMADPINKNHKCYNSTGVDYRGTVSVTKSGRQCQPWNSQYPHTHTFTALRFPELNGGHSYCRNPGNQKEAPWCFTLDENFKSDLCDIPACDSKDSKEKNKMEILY
Sequence of human ROR1 on cells (full-length human ROR1 on huROR1-HEK293 cells; human ROR1 on A549 and HT-29 tumor cells) (human) (Q01973 30-937): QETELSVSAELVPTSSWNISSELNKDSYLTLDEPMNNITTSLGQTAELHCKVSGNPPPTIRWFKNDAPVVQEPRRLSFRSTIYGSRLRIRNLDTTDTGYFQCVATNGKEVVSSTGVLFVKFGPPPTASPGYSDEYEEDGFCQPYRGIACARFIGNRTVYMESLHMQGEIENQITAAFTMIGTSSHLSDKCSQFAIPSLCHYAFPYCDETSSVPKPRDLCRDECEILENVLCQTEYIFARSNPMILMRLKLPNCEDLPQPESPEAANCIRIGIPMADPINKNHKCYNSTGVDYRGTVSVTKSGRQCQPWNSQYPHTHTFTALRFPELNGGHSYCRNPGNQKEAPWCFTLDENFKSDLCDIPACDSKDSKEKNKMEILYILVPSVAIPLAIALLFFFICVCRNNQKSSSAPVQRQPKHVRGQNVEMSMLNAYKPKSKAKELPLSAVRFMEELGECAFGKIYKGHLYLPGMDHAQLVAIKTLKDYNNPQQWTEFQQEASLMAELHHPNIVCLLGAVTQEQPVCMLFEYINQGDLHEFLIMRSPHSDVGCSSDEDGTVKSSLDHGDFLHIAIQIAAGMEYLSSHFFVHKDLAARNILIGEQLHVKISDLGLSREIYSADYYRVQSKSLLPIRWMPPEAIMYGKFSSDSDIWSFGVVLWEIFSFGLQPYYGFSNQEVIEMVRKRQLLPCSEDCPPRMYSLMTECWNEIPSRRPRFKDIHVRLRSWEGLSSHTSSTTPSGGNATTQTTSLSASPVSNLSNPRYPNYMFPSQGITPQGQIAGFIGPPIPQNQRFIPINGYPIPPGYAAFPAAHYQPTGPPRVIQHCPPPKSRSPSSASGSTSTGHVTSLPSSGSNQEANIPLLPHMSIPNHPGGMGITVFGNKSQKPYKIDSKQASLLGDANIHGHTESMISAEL

By EC50 is commonly meant the concentration needed to bring the measured effect to its halfway point. As a reminder, the EC50 (read off the curve) is the midpoint of the concentration-response curve. Higher therefore signals a less potent agent. As usually defined, the Kd is the constant that tells how readily two partners part at equilibrium. The low end stands for a tighter complex, the high end for a looser complex. For orientation: koff means the first-order rate constant of dissociation. A higher koff goes with a short-lived complex. By kon is commonly meant the second-order rate constant of association. Low values mean slow association, high ones fast association. As to “Cirmtuzumab (positive control anti-ROR1 antibody, clone number 99961.1)”, the EC50 in experiment [1] worked out at 5.78 ng/mL; in experiment [3], 5.12 ng/mL; in [8], 3.3 ng/mL; in experiment [9], 3.24 ng/mL; in [10] it was 3 ng/mL; in [11] it was 2.56 ng/mL. In addition, the EC50 in experiment [14] was found to be 3 ng/mL. The EC50 (read off the curve) was 10 ng/mL in experiment [2]; 60 ng/mL in experiment [5]; 3 ng/mL in experiment [7]; 20 ng/mL in [12]; 50 ng/mL in [13]. Besides, the Kd stood at 13.5 nM in experiment [4] and 1.98 nM in experiment [6]. Also, the koff in experiment [4] is 0.00712 s⁻¹; in experiment [6] it was 0.00137 s⁻¹. Further, the kon in experiment [4] was determined as 529000 M⁻¹ s⁻¹; in [6] it was 694000 M⁻¹ s⁻¹. This substance also registered a t 1/2 in [6] of 8.41 min.
